Where no end group is shown, it is not given here. [ ]: non-standard residue; d: D form. Aib = CC(C)(N)C(=O)O
T1: human glucose-dependent insulinotropic polypeptide receptor (human, UniProt P48546 22-466)
T1 sequence (looked up): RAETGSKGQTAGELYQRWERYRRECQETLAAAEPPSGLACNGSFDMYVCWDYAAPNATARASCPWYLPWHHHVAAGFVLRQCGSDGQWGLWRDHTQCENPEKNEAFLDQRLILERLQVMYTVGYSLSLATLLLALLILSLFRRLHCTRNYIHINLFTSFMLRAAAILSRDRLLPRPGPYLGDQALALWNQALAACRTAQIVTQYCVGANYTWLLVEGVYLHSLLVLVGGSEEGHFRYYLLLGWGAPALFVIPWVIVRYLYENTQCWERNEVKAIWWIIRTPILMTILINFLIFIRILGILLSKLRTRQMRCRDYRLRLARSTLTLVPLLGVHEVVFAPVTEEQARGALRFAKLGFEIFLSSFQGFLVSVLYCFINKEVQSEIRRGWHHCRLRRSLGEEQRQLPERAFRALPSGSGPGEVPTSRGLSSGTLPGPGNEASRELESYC

B1: Compound No. 56 (peptide)
peptide: H[Aib]HGTFTSDYSILLEKQAAHEFVQWLLEGGPSSGAPPPS-OH
modifications: not fully specified (residue 16); printed as H-Aib-HGTFTSDYSILLE-K[(2S)-2-amino-6-[[(2S)-2-amino-6-[[(4S)-4-carboxy-4-(17-carboxyheptadecanoylamino)butanoyl]amino]hexanoyl]amino]hexanoyl]-QAAHEFVQWLLEGGPSSGAPPPS-OH
B2: Compound No. 10 (peptide)
peptide: Y[Aib]QGTFTSDYSIYLDKKAA[Aib]EFVNWLLAGGPSSGAPPPS-NH2
modifications: not fully specified (residue 17); printed as Y-Aib-QGTFTSDYSIYLDK-K[2-[2-[2-[[2-[2-[2-[[(4S)-4-carboxy-4-[[4-[(19-carboxynonadecanoylamino)methyl]cyclohexanecarbonyl]amino]butanoyl]amino]ethoxy]ethoxy]acetyl]amino]ethoxy]ethoxy]acetyl]-AA-Aib-EFVNWLLAGGPSSGAPPPS-NH2
B3: Compound No. 9 (peptide)
peptide: Y[Aib]QGTFTSDYSIYLDKKAA[Aib]EFVNWLLAGGPSSGAPPPS-NH2
modifications: not fully specified (residue 17); printed as Y-Aib-QGTFTSDYSIYLDK-K[2-[2-[2-[[2-[2-[2-[[(4S)-4-carboxy-4-(19-carboxynonadecanoylamino)butanoyl]amino]ethoxy]ethoxy]acetyl]amino]ethoxy]ethoxy]acetyl]-AA-Aib-EFVNWLLAGGPSSGAPPPS-NH2
B4: Compound No. 52 (peptide)
peptide: H[Aib]HGTFTSDYSILLEKQAAQEFVQWLLEGGPSSGAPPPS-OH
modifications: not fully specified (residue 16); printed as H-Aib-HGTFTSDYSILLE-K[(2S)-2-amino-6-[[(2S)-2-amino-6-[[(4S)-4-carboxy-4-(17-carboxyheptadecanoylamino)butanoyl]amino]hexanoyl]amino]hexanoyl]-QAAQEFVQWLLEGGPSSGAPPPS-OH
B5: Compound No. 6 (peptide)
peptide: Y[Aib]QGTFTSDYSIYLDKQAA[Aib]EFVNWLLAGGPSSGAPPPS-NH2
modifications: not fully specified (residue 16); printed as Y-Aib-QGTFTSDYSIYLD-K[2-[2-[2-[[2-[2-[2-[[(4S)-4-carboxy-4-[[4-[(19-carboxynonadecanoylamino) methyl]cyclohexanecarbonyl]amino]butanoyl]amino]ethoxy ]ethoxy]acetyl]amino]ethoxy]ethoxy]acetyl]-QAA-Aib-EFVNWLLAGGPSSGAPPPS-NH2
B6: Compound No. 7 (peptide)
peptide: Y[Aib]QGTFTSDYSIYLDKQAA[Aib]KFVQWLLEGGPSSGAPPPS-NH2
modifications: not fully specified (residue 21); printed as Y-Aib-QGTFTSDYSIYLDKQAA-Aib-K[2-[2-[2-[[2-[2-[2-11(4S)-4-carboxy-4-(19-carboxynonadecanoylamino)butanoyl]amino]ethoxy]ethoxy]acetyl]amino]ethoxy]ethoxy]acetyl]-FVQWLLEGGPSSGAPPPS-NH2
B7: Compound No. 5 (peptide)
peptide: Y[Aib]QGTFTSDYSIYLDKQAA[Aib]EFVNWLLAGGPSSGAPPPS-NH2
modifications: not fully specified (residue 16); printed as Y-Aib-QGTFTSDYSIYLD-K[2-[2-[2-[2-[2-[2-[[[(4S)-4-carboxy-4-(19-carboxynonadecanoylamino) butanoyl]amino]ethoxy]ethoxy]acetyl]amino]ethoxy]ethoxy]acetyl]-QAA-Aib-EFVNWLLAGGPSSGAPPPS-NH2
B8: Compound No. 50 (peptide)
peptide: H[Aib]HGTFTSDYSILLEKQAAEEFVQWLLEGGPSSGAPPPS-OH
modifications: not fully specified (residue 16); printed as H-Aib-HGTFTSDYSILLE-K[(2S)-2-amino-6-[[(2S)-2-amino-6-[[(4S)-4-carboxy-4-(19-carboxynonadecanoylamino)butanoyl]amino]hexanoyl]amino]hexanoyl]-QAAEEFVQWLLEGGPSSGAPPPS-OH
B9: Compound No. 51 (peptide)
peptide: H[Aib]HGTFTSDYSILLEKQAAEEFVQWLLEGGPSSGAPPPS-OH
modifications: not fully specified (residue 16); printed as H-Aib-HGTFTSDYSILLE-K[(2S)-2-amino-6-[[(2S)-2-amino-6-[[(4S)-4-carboxy-4-(17-carboxyheptadecanoylamino)butanoyl]amino]hexanoyl]amino]hexanoyl]-QAAEEFVQWLLEGGPSSGAPPPS-OH
B10: Compound No. 53 (peptide)
peptide: H[Aib]HGTFTSDYSILLEKQAAQEFVQWLLEGGPSSGAPPPS-OH
modifications: not fully specified (residue 16); printed as H-Aib-HGTFTSDYSILLE-K[(2S)-2-amino-6-[[(2S)-2-amino-6-[[(4S)-4-carboxy-4-(19-carboxynonadecanoylamino)butanoyl]amino]hexanoyl]amino]hexanoyl]-QAAQEFVQWLLEGGPSSGAPPPS-OH
B11: Compound No. 54 (peptide)
peptide: H[Aib]HGTFTSDYSILLEKQAAREFVQWLLEGGPSSGAPPPS-OH
modifications: not fully specified (residue 16); printed as H-Aib-HGTFTSDYSILLE-K[(2S)-2-amino-6-[[(2S)-2-amino-6-[[(4S)-4-carboxy-4-(17-carboxyheptadecanoylamino)butanoyl]amino]hexanoyl]amino]hexanoyl]-QAAREFVQWLLEGGPSSGAPPPS-OH
B12: Compound No. 4 (peptide)
peptide: Y[Aib]QGTFTSDYSIYLDKQAA[Aib]KFVQWLLEGGPSSGAPPPS-NH2
modifications: not fully specified (residue 21); printed as Y-Aib-QGTFTSDYSIYLDKQAA-Aib-K[2-[2-[2-[[2-[2-[2-[[(4S)-4-carboxy-4-(17-carboxyheptadecanoylamino)butanoyl]amino]ethoxy]ethoxy]acetyl]amino]ethoxy]ethoxy]acetyl]-FVQWLLEGGPSSGAPPPS-NH2
B13: Compound No. 8 (peptide)
peptide: Y[Aib]QGTFTSDYSIYLDKQAA[Aib]KFVQWLLEGGPSSGAPPPS-NH2
modifications: not fully specified (residue 21); printed as Y-Aib-QGTFTSDYSIYLDKQAA-Aib-K[2-[2-[2-[[2-[2-[2-[[(4S)-4-carboxy-4-[[4-[(19-carboxynonadecanoylamino)methyl]cyclohexanecarbonyl]amino]butanoyl]amino]ethoxy]ethoxy]acetyl]amino]ethoxy]ethoxy]acetyl]-FVQWLLEGGPSSGAPPPS-NH2
B14: Compound No. 55 (peptide)
peptide: H[Aib]HGTFTSDYSILLEKQAAREFVQWLLEGGPSSGAPPPS-OH
modifications: not fully specified (residue 16); printed as H-Aib-HGTFTSDYSILLE-K[(2S)-2-amino-6-[[(2S)-2-amino-6-[[(4S)-4-carboxy-4-(19-carboxynonadecanoylamino)butanoyl]amino]hexanoyl]amino]hexanoyl]-QAAREFVQWLLEGGPSSGAPPPS-OH

These binders were tested against human glucagon receptor (human, UniProt P47871 26-477) (assay: cell-based or functional assay).
Sequence of human glucagon receptor (P47871 26-477): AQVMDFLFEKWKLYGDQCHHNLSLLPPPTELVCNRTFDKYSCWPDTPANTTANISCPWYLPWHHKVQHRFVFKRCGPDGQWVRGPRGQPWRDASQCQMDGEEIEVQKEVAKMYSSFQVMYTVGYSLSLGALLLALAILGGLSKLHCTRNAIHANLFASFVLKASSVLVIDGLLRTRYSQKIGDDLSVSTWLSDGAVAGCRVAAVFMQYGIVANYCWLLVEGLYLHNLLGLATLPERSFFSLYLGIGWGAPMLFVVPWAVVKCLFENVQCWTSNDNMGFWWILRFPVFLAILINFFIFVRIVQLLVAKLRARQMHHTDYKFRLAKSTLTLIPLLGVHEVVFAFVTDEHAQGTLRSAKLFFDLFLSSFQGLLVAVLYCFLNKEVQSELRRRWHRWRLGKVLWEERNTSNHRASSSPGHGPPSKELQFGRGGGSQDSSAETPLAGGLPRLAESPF

| Binder | hGcgR CRE Luc EC50 (pM) |
| --- | --- |
| B1 | 6.4 |
| Y[Aib]QGTFTSDYSIYLEKQAA[Aib]KFVQWLLEGGPSSGAPPPS-NH2 (not fully specified (residue 21)) [Compound No. 11] | 129 |
| B2 | 250 |
| B3 | 116 |
| B4 | 14.9 |
| B5 | 216 |
| B6 | 61.3 |
| B7 | 205 |
| B8 | 18.5 |
| B9 | 79.9 |
| B10 | 22 |
| B11 | 22.8 |
| B12 | 31.4 |
| B13 | 91.9 |
| B14 | 18.8 |

The binders below were run against T1, human glucose-dependent insulinotropic … (assay: cell-based or functional assay).

| Binder | hGIPR CRE Luc EC50 (pM) |
| --- | --- |
| B1 | 2.3 |
| Y[Aib]QGTFTSDYSIYLEKQAA[Aib]KFVQWLLEGGPSSGAPPPS-NH2 (not fully specified (residue 21)) [Compound No. 11] | 7.9 |
| B2 | 27.6 |
| B3 | 48.6 |
| B4 | 6.6 |
| B5 | 7.7 |
| B6 | 65.5 |
| B7 | 20.6 |
| B8 | 1.9 |
| B9 | 1.8 |
| B10 | 4.8 |
| B11 | 28 |
| B12 | 60.3 |
| B13 | 45.5 |
| B14 | 7.5 |

What follows are binders tested against human glucagon-like peptide 1 receptor (human, UniProt P43220 24-463) (assay: cell-based or functional assay).

| Binder | hGLP-1R CRE Luc EC50 (pM) |
| --- | --- |
| B1 | 1.1 |
| Y[Aib]QGTFTSDYSIYLEKQAA[Aib]KFVQWLLEGGPSSGAPPPS-NH2 (not fully specified (residue 21)) [Compound No. 11] | 4.3 |
| B2 | 4.7 |
| B3 | 4.4 |
| B4 | 0.8 |
| B5 | 5.1 |
| B6 | 8.2 |
| B7 | 7.2 |
| B8 | 1 |
| B9 | 0.7 |
| B10 | 2.7 |
| B11 | 1.5 |
| B12 | 9.4 |
| B13 | 12.1 |
| B14 | 2 |
